Test results as given in patent publication US20200262877A1, “ION CHANNEL-BINDING PEPTIDES AND METHODS OF USE THEREOF” (priority 2017, published 2020).

Assays:
Nav1.5 = Nav1.5 (Homo sapiens, UniProt Q14524); test: in vitro; conditions: 100% = no change; for Activity of Nav1.5 with peptide, expressed as a percentage of the reference compound: peptide at 0.2 μM; for Activity of Nav1.5 with peptide (percentage of the reference compound): peptide at 20 μM
How it was run: (§1)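 Transfected HEK293 or CHO cells were exposed for at least 5 min to peptides at 200 nM and 20 μM final, tested in duplicate, in HEPES-buffered physiological saline. Activation was taken as peptide-plus-agonist current over control current ×100, and inhibition as 1 minus that ratio ×100. Each channel's control was its own reference compound.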

hERG = hERG (Homo sapiens, UniProt Q12809); test: in vitro; conditions: 100% = no change, <100% = inhibition
How it was run: as §1

GABA = test: Ion channel panel (IonWorks Barracuda): GABA; assay type: cell-based; conditions: 100% = no change, <100% = inhibition
How it was run: as §1

α4β2 = molecular target: T1, α4β2 (Homo sapiens, UniProt P17787+P43681); test: Ion channel panel (IonWorks Barracuda): α4β2; assay type: cell-based; conditions: 100% = no change, <100% = inhibition
T1 construct: host or cells: HEK293 or CHO
How it was run: as §1

Cav2.2 = molecular target: T2, Cav2.2 (Homo sapiens, UniProt Q00975); test: cell-based; conditions: 100% = no change, <100% = inhibition
T2 construct: host or cells: HEK293 or CHO
How it was run: as §1

Cav2.1 = molecular target: T3, Cav2.1 (Homo sapiens, UniProt O00555); test: cell-based; conditions: 100% = no change, <100% = inhibition
T3 construct: host or cells: HEK293 or CHO
How it was run: as §1

Kv2.1 = molecular target: T4, Kv2.1 (Homo sapiens, UniProt Q14721); test: cell-based; conditions: 100% = no change, <100% = inhibition
T4 construct: host or cells: HEK293 or CHO
How it was run: as §1

TRPV1 = molecular target: T5, TRPV1 (Homo sapiens, UniProt Q8NER1); test: Ion channel panel (IonWorks Barracuda): TRPV1; assay type: cell-based; conditions: 100% = no change, <100% = inhibition
T5 construct: host or cells: HEK293 or CHO
How it was run: as §1

NR2B = molecular target: T6, NR2B (Homo sapiens, UniProt Q13224); test: Ion channel panel (IonWorks Barracuda): NR2B; assay type: cell-based; conditions: 100% = no change, <100% = inhibition
T6 construct: host or cells: HEK293 or CHO
How it was run: as §1

Kir2.1 = molecular target: T7, Kir2.1 (Homo sapiens, UniProt P63252); test: Ion channel panel (IonWorks Barracuda): Kir2.1; assay type: cell-based; conditions: 100% = no change, <100% = inhibition
T7 construct: host or cells: HEK293 or CHO
How it was run: as §1

Kv1.1 = molecular target: T8, Kv1.1 (Homo sapiens, UniProt Q09470); test: cell-based; assay type: cell-based; conditions: 100% = no change, <100% = inhibition
T8 construct: host or cells: HEK293 or CHO
How it was run: as §1

Kv1.3 = molecular target: T9, Kv1.3 (Homo sapiens, UniProt P22001); test: cell-based; assay type: cell-based; conditions: 100% = no change, <100% = inhibition
T9 construct: host or cells: HEK293 or CHO
How it was run: as §1

Kv1.2 = molecular target: T10, Kv1.2 (Homo sapiens, UniProt P16389); test: cell-based; assay type: cell-based; conditions: 100% = no change, <100% = inhibition
T10 construct: host or cells: HEK293 or CHO
How it was run: as §1

TRPA1 = molecular target: T11, TRPA1 (Homo sapiens, UniProt O75762); test: Ion channel panel (IonWorks Barracuda): TRPA1; assay type: cell-based; conditions: 100% = no change, <100% = inhibition
T11 construct: host or cells: HEK293 or CHO
How it was run: as §1

NR2A = molecular target: T12, NR2A (Homo sapiens, UniProt Q12879); test: Ion channel panel (IonWorks Barracuda): NR2A; assay type: cell-based; conditions: 100% = no change, <100% = inhibition
T12 construct: host or cells: HEK293 or CHO
How it was run: as §1

5HT3a = molecular target: T13, 5HT3a (Homo sapiens, UniProt P46098); test: Ion channel panel (IonWorks Barracuda): 5HT3a; assay type: cell-based
T13 construct: host or cells: HEK293 or CHO
T13 sequence (P46098 whole entry, looked up): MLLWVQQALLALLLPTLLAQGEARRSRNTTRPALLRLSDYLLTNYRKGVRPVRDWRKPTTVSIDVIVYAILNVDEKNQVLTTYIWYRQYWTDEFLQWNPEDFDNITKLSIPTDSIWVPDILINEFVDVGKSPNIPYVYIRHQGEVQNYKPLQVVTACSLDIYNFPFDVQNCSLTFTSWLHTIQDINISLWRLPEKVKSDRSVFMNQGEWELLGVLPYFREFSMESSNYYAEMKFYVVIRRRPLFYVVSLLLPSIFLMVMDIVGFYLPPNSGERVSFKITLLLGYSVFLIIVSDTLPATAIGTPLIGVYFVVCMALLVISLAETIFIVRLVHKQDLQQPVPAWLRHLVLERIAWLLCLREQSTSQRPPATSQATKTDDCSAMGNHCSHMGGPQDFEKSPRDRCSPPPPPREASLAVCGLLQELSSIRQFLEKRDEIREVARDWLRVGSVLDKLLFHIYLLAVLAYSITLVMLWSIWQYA
How it was run: as §1

Nav1.7 = molecular target: T14, Nav1.7 (Homo sapiens, UniProt Q15858); test: cell-based; assay type: cell-based; conditions: 100% = no change; for Activity of Nav1.7 with peptide, expressed as a percentage of the reference compound: peptide at 0.2 μM; for Activity of Nav1.7 with peptide (percentage of the reference compound): peptide at 20 μM
T14 construct: host or cells: HEK293 or CHO

α3β4 = molecular target: T15, α3β4 (Homo sapiens, UniProt P30926+P32297); test: Ion channel panel (IonWorks Barracuda): α3β4; assay type: cell-based; conditions: 100% = no change, <100% = inhibition
T15 construct: host or cells: HEK293 or CHO
How it was run: as §1

[1] = first of two Nav1.5 columns (probably TP1)
[2] = second of two Nav1.5 columns (probably TP2)
[3] = first of two Nav1.7 columns (probably TP1)
[4] = second of two Nav1.7 columns (probably TP2)

T14 sequence (Q15858 whole entry): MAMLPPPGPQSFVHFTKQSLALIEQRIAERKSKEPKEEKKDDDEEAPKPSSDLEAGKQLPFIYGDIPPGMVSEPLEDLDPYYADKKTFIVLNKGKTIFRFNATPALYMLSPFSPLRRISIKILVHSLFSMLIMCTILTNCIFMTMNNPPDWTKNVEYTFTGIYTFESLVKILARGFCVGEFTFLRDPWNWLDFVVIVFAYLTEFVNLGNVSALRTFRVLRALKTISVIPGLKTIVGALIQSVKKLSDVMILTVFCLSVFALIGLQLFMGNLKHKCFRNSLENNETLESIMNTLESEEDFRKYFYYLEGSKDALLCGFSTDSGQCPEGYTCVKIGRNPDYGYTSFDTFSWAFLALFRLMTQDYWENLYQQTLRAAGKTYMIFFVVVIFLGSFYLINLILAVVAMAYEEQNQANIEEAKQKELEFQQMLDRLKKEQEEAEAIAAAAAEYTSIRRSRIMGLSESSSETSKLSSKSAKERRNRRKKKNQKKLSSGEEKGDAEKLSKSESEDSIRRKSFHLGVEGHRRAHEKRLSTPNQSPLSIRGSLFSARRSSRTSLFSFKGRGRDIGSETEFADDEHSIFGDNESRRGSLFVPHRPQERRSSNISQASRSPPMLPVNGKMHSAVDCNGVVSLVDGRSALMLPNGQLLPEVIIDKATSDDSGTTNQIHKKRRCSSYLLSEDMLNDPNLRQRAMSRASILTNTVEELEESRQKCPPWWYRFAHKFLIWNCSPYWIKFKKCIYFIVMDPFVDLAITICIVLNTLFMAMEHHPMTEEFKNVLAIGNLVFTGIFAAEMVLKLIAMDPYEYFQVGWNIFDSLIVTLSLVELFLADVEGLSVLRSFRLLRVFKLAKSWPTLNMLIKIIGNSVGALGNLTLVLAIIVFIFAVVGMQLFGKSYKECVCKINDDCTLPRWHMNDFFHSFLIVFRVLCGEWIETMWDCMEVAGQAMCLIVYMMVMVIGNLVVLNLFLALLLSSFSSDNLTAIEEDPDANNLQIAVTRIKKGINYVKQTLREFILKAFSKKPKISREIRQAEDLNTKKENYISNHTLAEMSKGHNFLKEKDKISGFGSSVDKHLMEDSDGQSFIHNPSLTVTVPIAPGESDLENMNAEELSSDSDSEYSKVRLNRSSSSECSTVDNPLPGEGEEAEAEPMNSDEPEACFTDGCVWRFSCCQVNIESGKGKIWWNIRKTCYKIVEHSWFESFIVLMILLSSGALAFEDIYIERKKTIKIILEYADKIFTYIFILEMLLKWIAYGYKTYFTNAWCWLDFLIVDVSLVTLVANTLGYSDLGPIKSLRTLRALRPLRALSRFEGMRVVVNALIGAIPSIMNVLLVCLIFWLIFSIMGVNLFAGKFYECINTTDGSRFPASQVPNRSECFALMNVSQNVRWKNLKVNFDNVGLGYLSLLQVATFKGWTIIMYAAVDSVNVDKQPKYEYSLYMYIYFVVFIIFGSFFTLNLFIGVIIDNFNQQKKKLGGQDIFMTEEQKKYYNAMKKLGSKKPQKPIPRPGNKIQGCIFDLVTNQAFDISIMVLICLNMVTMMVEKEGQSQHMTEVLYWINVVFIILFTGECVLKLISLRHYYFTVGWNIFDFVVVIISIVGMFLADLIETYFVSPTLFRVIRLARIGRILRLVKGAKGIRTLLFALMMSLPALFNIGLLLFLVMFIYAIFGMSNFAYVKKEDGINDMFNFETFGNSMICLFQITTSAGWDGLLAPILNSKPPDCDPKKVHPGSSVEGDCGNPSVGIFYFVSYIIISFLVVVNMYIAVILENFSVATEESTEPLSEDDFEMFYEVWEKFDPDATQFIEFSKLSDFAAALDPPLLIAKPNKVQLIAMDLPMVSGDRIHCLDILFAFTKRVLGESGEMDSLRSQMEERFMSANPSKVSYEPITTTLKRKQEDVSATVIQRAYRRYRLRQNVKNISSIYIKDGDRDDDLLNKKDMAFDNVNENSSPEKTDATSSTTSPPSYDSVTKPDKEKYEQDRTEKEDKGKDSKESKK
Nav1.5, sequence (Q14524 whole entry): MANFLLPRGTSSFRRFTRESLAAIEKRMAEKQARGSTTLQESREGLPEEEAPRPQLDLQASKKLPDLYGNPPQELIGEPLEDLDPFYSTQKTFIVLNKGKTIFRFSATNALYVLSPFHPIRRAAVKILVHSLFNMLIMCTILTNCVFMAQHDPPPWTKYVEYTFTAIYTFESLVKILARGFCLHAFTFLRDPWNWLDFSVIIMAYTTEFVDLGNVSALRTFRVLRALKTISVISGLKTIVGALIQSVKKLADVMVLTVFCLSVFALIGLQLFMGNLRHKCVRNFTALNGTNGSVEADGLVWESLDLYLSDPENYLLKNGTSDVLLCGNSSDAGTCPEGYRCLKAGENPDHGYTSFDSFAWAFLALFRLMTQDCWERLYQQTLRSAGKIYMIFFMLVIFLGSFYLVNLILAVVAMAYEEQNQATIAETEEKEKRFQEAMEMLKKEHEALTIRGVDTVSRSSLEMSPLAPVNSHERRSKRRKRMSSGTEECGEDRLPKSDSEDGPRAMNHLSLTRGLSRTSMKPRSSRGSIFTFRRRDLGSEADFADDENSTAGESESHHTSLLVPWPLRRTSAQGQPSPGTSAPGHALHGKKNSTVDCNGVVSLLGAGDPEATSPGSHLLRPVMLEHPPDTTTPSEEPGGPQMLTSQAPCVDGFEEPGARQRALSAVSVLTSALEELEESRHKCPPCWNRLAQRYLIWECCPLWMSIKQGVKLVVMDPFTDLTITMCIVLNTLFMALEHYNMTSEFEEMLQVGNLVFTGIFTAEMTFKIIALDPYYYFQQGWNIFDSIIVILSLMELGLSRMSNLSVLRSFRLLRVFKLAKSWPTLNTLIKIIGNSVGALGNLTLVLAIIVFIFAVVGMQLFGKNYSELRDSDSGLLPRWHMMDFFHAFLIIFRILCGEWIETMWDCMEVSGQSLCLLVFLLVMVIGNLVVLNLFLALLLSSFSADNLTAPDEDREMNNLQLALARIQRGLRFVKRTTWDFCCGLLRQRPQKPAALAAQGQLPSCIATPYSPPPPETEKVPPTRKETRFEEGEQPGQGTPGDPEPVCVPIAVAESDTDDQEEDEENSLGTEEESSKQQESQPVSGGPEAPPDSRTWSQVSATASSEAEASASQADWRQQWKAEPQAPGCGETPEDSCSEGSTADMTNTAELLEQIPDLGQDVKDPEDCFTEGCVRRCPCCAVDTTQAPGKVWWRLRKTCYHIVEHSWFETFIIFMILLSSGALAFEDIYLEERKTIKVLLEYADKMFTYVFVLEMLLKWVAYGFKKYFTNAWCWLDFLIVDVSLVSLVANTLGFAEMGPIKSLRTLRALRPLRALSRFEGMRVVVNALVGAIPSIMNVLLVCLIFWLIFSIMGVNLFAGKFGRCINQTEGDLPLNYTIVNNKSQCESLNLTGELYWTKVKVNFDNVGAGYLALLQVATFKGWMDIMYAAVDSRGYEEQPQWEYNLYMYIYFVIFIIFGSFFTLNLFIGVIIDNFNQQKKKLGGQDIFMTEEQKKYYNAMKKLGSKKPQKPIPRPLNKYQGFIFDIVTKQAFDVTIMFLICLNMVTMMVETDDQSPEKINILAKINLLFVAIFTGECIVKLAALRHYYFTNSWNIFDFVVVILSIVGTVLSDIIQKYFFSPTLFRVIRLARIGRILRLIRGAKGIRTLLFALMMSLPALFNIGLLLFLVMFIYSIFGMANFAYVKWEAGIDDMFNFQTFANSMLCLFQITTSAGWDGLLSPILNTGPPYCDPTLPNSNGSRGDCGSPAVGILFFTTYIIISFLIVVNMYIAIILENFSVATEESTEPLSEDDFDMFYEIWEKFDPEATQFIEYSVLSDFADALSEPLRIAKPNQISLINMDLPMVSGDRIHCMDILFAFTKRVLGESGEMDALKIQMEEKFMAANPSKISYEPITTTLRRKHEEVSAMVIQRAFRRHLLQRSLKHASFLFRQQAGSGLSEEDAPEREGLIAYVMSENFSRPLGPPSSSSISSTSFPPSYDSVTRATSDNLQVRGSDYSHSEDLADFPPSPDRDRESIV
T1 sequence (P43681 29-627): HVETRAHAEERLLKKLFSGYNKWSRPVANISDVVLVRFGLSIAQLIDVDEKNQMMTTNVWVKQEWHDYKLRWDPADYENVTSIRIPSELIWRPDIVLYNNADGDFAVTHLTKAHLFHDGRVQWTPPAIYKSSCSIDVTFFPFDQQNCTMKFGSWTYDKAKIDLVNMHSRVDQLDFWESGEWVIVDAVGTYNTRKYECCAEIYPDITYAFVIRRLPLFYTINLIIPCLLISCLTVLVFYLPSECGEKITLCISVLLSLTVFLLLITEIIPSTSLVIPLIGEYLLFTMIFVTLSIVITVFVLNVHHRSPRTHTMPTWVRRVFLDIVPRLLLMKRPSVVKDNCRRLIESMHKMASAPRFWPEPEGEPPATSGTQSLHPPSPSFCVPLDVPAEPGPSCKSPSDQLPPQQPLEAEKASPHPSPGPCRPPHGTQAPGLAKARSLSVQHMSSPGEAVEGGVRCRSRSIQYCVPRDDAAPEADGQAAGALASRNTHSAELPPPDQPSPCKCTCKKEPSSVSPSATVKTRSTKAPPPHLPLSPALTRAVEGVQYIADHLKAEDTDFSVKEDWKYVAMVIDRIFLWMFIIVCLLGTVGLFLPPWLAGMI
T1 sequence (P17787 26-502): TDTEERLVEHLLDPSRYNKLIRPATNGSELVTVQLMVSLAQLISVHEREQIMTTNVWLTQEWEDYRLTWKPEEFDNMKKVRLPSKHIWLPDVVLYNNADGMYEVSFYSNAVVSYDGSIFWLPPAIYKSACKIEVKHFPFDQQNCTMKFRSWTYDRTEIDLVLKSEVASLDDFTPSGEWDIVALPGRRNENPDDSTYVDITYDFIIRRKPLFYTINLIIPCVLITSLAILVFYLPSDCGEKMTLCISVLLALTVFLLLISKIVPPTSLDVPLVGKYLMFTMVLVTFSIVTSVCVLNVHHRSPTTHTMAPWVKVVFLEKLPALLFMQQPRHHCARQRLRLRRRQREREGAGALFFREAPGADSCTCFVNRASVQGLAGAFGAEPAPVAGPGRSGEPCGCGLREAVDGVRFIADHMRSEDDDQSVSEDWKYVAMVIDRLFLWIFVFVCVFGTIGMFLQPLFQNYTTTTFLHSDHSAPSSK

For “16 (GSQFCGTNGKPCVNGQCCGALRCVVTYHYADGVCLKMNP) [compound 16]”, which “Activity of Nav1.5 with peptide, expressed as a percentage of the reference compound” value (Nav1.5; [1]) is on record?
The value was 107%.

What about the “Activity of Nav1.5 with peptide, expressed as a percentage of the reference compound” value (Nav1.5; [2]) of the same substance?
The value was 104%.

And the “Activity of Nav1.5 with peptide (percentage of the reference compound)” value (Nav1.5; [1])?
The value was 93%.

What about the “Activity of Nav1.5 with peptide (percentage of the reference compound)” value (Nav1.5; [2]) of the same substance?
The value was 93%.

And the “Activity of hERG with peptide, expressed as a percentage of the reference compound” value (hERG; peptide at 0.2 μM)?
Its value is 74%.

What about the “Activity of hERG with peptide (percentage of the reference compound)” value (hERG; peptide at 20 μM) of the same substance?
The value was 71%.

What about the “Activity of GABA with peptide, expressed as a percentage of the reference compound” value (GABA; peptide at 0.2 μM) of the same substance?
Its value is 102%.

And the “Activity of GABA with peptide (percentage of the reference compound)” value (GABA; peptide at 20 μM)?
Its value is 109%.

And the “Activity of a4b2 with peptide, expressed as a percentage of the reference compound” value (α4β2; peptide at 0.2 μM)?
Its value is 83%.

What about the “Activity of a4b2 with peptide (percentage of the reference compound)” value (α4β2; peptide at 20 μM) of the same substance?
The value was 72%.

What about the “Activity of Cav2.2 with peptide, expressed as a percentage of the reference compound” value (Cav2.2; peptide at 0.2 μM) of the same substance?
The value was 124%.

And the “Activity of Cav2.2 with peptide (percentage of the reference compound)” value (Cav2.2; peptide at 20 μM)?
Its value is 104%.

What about the “Activity of Cav2.1 with peptide, expressed as a percentage of the reference compound” value (Cav2.1; peptide at 0.2 μM) of the same substance?
The value was 113%.

And the “Activity of Cav2.1 with peptide (percentage of the reference compound)” value (Cav2.1; peptide at 20 μM)?
Its value is 92%.

What about the “Activity of Kv2.1 with peptide, expressed as a percentage of the reference compound” value (Kv2.1; peptide at 0.2 μM) of the same substance?
The value was 114%.

And the “Activity of Kv2.1 with peptide (percentage of the reference compound)” value (Kv2.1; peptide at 20 μM)?
The value was 98%.

What about the “Activity of TRPV1 with peptide, expressed as a percentage of the reference compound” value (TRPV1; peptide at 0.2 μM) of the same substance?
Its value is 107%.

And the “Activity of TRPV1 with peptide (percentage of the reference compound)” value (TRPV1; peptide at 20 μM)?
Its value is 88%.

And the “Activity of NR2B with peptide, expressed as a percentage of the reference compound” value (NR2B; peptide at 0.2 μM)?
The value was 88%.

What about the “Activity of NR2B with peptide (percentage of the reference compound)” value (NR2B; peptide at 20 μM) of the same substance?
The value was 91%.

And the “Activity of Kir2.1 with peptide, expressed as a percentage of the reference compound” value (Kir2.1; peptide at 0.2 μM)?
Its value is 98%.

And the “Activity of Kir2.1 with peptide (percentage of the reference compound)” value (Kir2.1; peptide at 20 μM)?
The value was 92%.

And the “Activity of Kv1.1 with peptide, expressed as a percentage of the reference compound” value (Kv1.1; peptide at 0.2 μM)?
The value was 84%.

And the “Activity of Kv1.1 with peptide (percentage of the reference compound)” value (Kv1.1; peptide at 20 μM)?
Its value is 67%.

And the “Activity of Kv1.3 with peptide, expressed as a percentage of the reference compound” value (Kv1.3; peptide at 0.2 μM)?
Its value is 92%.

What about the “Activity of Kv1.3 with peptide (percentage of the reference compound)” value (Kv1.3; peptide at 20 μM) of the same substance?
The value was 92%.

What about the “Activity of Kv1.2 with peptide, expressed as a percentage of the reference compound” value (Kv1.2; peptide at 0.2 μM) of the same substance?
Its value is 78%.

And the “Activity of Kv1.2 with peptide (percentage of the reference compound)” value (Kv1.2; peptide at 20 μM)?
The value was 61%.

What about the “Activity of TRPA1 with peptide, expressed as a percentage of the reference compound” value (TRPA1; peptide at 0.2 μM) of the same substance?
The value was 99%.

And the “Activity of TRPA1 with peptide (percentage of the reference compound)” value (TRPA1; peptide at 20 μM)?
Its value is 116%.

And the “Activity of NR2A with peptide, expressed as a percentage of the reference compound” value (NR2A; peptide at 0.2 μM)?
Its value is 101%.

And the “Activity of NR2A with peptide (percentage of the reference compound)” value (NR2A; peptide at 20 μM)?
Its value is 95%.

What about the “Activity of 5HT3a with peptide (percentage of the reference compound)” value (5HT3a) of the same substance?
Its value is 103%.

And the “Activity of 5HT3a with peptide, expressed as a percentage of the reference compound” value (5HT3a)?
Its value is 114%.

What about the “Activity of Nav1.7 with peptide, expressed as a percentage of the reference compound” value (Nav1.7; [3]) of the same substance?
The value was 86%.

What about the “Activity of Nav1.7 with peptide, expressed as a percentage of the reference compound” value (Nav1.7; [4]) of the same substance?
The value was 91%.

And the “Activity of Nav1.7 with peptide (percentage of the reference compound)” value (Nav1.7; [3])?
The value was 66%.

What about the “Activity of Nav1.7 with peptide (percentage of the reference compound)” value (Nav1.7; [4]) of the same substance?
The value was 43%.

And the “Activity of a3b4 with peptide, expressed as a percentage of the reference compound” value (α3β4; peptide at 0.2 μM)?
The value was 100%.

And the “Activity of a3b4 with peptide (percentage of the reference compound)” value (α3β4; peptide at 20 μM)?
The value was 95%.
